This is an account of results in patent US9394352B2, “Immunogenic POTE peptides and methods of use” (The United States of America, as represented by the …, priority 2010, dated 2016).

This assay addresses T1, HLA-A2 molecule (Homo sapiens, UniProt P04439, D140Y/D185E/D98H/E176V/E277Q/G131W/G231S/I119V/I121R/I166T/I218V/L300P/L318F/N151K/N90K/P208A/P217A/Q86G/Q94H/R138H/R169H/T345S).
T1 construct: The T2 cell line is deficient for TAP1 and TAP2 transporter proteins and expresses low levels of HLA-A2; endogenous in cells; host or cells: T2 cell line (TAP1/TAP2-deficient)
Nature of the assay: T2 binding assay (HLA-A2 up-regulation on TAP-deficient T2 cells). Particulars: for FI0.5: peptide concentration that increases HLA-A2.1 expression by 50% over no peptide. As for the experimental part:
FIG. 1 is a graph showing binding affinity of POTE peptides to HLA-A2 molecules. Peptides were dissolved in DMSO in double-distilled water and different concentrations of peptides were added into the culture of TAP-deficient T2 cells. After overnight culture of the cells in medium supplemented with β2-microglobulin, cells were stained with anti-HLA-A2. HLA-A2 expression was quantified as fluorescence index (FI) according to the following formula: FI=[(mean fluorescence intensity with peptide−mean fluorescence intensity without peptide)/mean fluorescence intensity without peptide]. Background fluorescence without BB7.2 was subtracted for each individual value. To compare the different peptides, FI0.5 (the peptide concentration that increases HLA-A2.1 expression by 50% over no peptide control background) was calculated from the titration curve for each peptide.
FIGS. 2A-2C are graphs showing binding affinity of substituted POTE peptides to HLA-A2 molecules. Shown are binding affinities of the substituted POTE 252 peptides (FIG. 2A), the substituted POTE 553 peptides (FIG. 2B) and the substituted POTE 323 peptides (FIG. 2C) to HLA-A2 molecules. Different concentrations of peptides were added into the culture of TAP-deficient T2 cells. After overnight culture of the cells in medium supplemented with β2-microglobulin, cells were stained with anti-HLA-A2 antibody.
Peptide binding capacity to the HLA-A2 molecule was measured by using the T2 cell line according to a protocol described previously (Peters et al., Bioinformatics 19(14):1765-1772, 2003). T2 cells (3×10^5 cells/well) were incubated overnight in 96-well plates with culture medium (1:1 mixture of RPMI 1640/Eagle-Hank's amino acid containing 2.5% fetal bovine serum, 100 U/ml penicillin, and 100 μg/ml streptomycin) with 10 μg/ml β2-microglobulin (Sigma) and different titrated concentrations of peptides (starting from 100 μM with 2-fold serial dilution) as shown in the figures to determine the concentration giving a 50% increasing in binding. Cells were washed once with cold HBSS containing 0.1% BSA and incubated for 30 minutes at 4° C. with anti-HLA-A2.1 BB7.2 monoclonal antibody (1:40 dilution from hybridoma supernatant). After washing, cells were stained with FITC-labeled goat anti-mouse immunoglobulin (BD, San Jose, Calif.), and the level of HLA expression was measured by flow cytometry. HLA-A2 expression was quantified as fluorescence index (FI) according to the following formula: FI=[(geometric mean fluorescence intensity with peptide-geometric mean fluorescence intensity without peptide)/geometric mean fluorescence intensity without peptide]. Background fluorescence without BB7.2 was subtracted for each individual value. To compare the different peptides, FI0.5, the peptide concentration that increases HLA-A2.1 expression by 50% over no peptide control background, was calculated from the titration curve for each peptide.

[1] abbreviates: substituted peptides and their wild types, Table 2 / FIGS. 2A-2C.

In the case of “KIFEEIESV [POTE 553-3F, modified POTE 553 peptide, phenylalanine at position 3]”, under setting [1], the FI0.5 was found to be 0.3 µM.
“LLLEQNADV [POTE 323-7A, modified POTE 323 peptide, alanine at position 7]”: under setting [1], the FI0.5 was 2.78 µM.
Take VLMLLEHGA [POTE 222-230]: the “binding affinity for the HLA-A2 molecule (in words)” value (T2 binding assay) is “weak binder”. Further, the FI0.5 result (wild-type peptides, Table 1 / FIG. 1) is “approximately 42.4 μM”.
Consider “KLMAKAALL [POTE 252-7A, modified POTE 252 peptide, alanine at position 7]”, for which the FI0.5 under setting [1] was 4 µM.
“KILEEIASV [POTE-553-7A, modified POTE 553 peptide, alanine at position 7]”: under setting [1], the FI0.5 came out at 0.2 µM.
The same measure, in the same setting: the figure for “YLLEQNVDV [POTE 323-1Y, modified POTE 323 peptide, tyrosine at position 1]” is 0.25 µM; for “LLAEQNVDV [POTE 323-3A, modified POTE 323 peptide, alanine at position 3]” it is 0.4 µM; for “KLAAKALLL [POTE 252-3A, modified POTE 252 peptide, alanine at position 3]” it is 16.9 µM.
Same read-out and setting: as for “KLFAKALLL [POTE 252-3F, modified POTE 252 peptide, phenylalanine at position 3]”, the figure is 1.5 µM.
